Reference: article PMC5496861, “Yeast Cip1 is activated by environmental stress to inhibit Cdk1–G1 cyclins via Mcm1 and Msn2/4”

T1: GST-Msn2(401-704) (Saccharomyces cerevisiae, UniProt P33748 401-704)
T1 sequence: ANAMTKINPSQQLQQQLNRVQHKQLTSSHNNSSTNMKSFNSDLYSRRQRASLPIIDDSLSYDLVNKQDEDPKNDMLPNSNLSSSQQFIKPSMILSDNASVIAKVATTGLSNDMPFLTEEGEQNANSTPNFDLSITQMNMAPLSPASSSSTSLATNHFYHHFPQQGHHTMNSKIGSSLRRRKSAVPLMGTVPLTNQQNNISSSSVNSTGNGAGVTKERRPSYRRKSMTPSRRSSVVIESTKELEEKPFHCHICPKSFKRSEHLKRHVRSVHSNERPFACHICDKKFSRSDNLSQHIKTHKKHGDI

B1: STRE I (dsDNA)
DNA 1: GGAACTCGCGCAGGGGGAAGACATA
DNA 2: TATGTCTTCCCCCTGCGCGAGTTCC
B2: STRE II (dsDNA)
DNA 1: GTATTTTCCTCCCCCTAGCTTCAAC
DNA 2: GTTGAAGCTAGGGGGAGGAAAATAC

Biological target: T1, GST-Msn2(401-704)
Assay: EMSA; 100 ng protein, 32P-end-labeled ds oligos, 4% nondenaturing polyacrylamide gel; buffer, salt, pH and temperature not given (as previously described, ref 64)
Conditions: protein: recombinant; tags: N-terminal GST (pGEX4T-1); label: 32P end label; blunt

Binder | binding result
B1 | binds
B2 | binds
